Here are results for one molecule from PMC12493207, “Annexin A2 interferes with complement regulation within the glomerulus” (The Journal of Biological Chemistry, 2025).

The target in this assay is T1, recombinant murine Factor H (murine, UniProt P06909 19-1234).
T1 construct: murine complement Factor H, residues 19-1234 of UniProt P06909; also called FH; source: CHO cells, transfected, purified from the supernatant (HiTrap His column)
The experiment in a line: ELISA; Figure 1A-B: by the legend varying concentrations of Factor H immobilised on the plate, a fixed concentration of rA2 or of an annexin A2 fragment added, bound annexin A2 detected with an antibody (the methods tell the reverse: 800 ng rA2 adsorbed, Factor H 20 μg/ml in TBS with 2 mM Ca, 3 h, room temperature). The settings on record: both partners purified.

T1 sequence (P06909 19-1234): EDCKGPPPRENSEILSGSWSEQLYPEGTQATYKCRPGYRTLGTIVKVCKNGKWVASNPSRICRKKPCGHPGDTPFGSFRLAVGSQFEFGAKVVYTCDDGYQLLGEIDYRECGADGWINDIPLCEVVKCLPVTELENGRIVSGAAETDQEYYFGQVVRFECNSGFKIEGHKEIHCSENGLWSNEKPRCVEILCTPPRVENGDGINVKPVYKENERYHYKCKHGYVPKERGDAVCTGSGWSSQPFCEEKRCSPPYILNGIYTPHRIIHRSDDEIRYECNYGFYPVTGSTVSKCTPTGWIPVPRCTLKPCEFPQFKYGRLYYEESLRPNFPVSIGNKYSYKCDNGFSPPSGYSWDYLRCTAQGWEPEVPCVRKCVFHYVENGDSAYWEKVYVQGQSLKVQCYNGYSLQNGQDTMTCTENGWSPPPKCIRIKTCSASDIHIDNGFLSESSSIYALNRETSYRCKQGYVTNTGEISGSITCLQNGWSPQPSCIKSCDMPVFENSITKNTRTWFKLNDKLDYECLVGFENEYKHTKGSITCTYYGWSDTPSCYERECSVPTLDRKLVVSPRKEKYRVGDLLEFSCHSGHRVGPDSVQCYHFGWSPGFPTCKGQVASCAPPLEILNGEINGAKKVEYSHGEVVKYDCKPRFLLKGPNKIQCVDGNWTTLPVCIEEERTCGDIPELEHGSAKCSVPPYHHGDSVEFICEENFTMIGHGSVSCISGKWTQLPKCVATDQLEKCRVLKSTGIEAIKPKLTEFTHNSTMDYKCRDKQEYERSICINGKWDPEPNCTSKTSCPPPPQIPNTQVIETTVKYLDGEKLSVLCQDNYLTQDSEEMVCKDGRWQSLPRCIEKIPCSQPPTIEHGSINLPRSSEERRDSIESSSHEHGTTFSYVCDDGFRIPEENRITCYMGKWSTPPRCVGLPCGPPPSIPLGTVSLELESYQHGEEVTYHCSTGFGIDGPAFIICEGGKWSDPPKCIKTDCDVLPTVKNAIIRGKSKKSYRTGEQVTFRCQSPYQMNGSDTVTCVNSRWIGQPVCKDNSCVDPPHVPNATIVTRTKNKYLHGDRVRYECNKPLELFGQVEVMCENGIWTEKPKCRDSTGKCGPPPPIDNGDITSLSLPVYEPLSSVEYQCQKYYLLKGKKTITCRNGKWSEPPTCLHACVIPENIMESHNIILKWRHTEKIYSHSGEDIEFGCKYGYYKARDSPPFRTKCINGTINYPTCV

B1: recombinant annexin A2 (natural protein, mouse, UniProt P07356 1-339, looked up)
chain: MSTVHEILCKLSLEGDHSTPPSAYGSVKPYTNFDAERDALNIETAVKTKGVDEVTIVNILTNRSNVQRQDIAFAYQRRTKKELPSALKSALSGHLETVILGLLKTPAQYDASELKASMKGLGTDEDSLIEIICSRTNQELQEINRVYKEMYKTDLEKDIISDTSGDFRKLMVALAKGRRAEDGSVIDYELIDQDARELYDAGVKRKGTDVPKWISIMTERSVCHLQKVFERYKSYSPYDMLESIKKEVKGDLENAFLNLVQCIQNKPLYFADRLYDSMKGKGTRDKVLIRIMVSRSEVDMLKIRSEFKRKYGKSLYYYIQQDTKGDYQKALLYLCGGDD
notes: annexin A2, mouse; cDNA reverse transcribed from total mRNA of a C57BL/6 mouse kidney; also called rA2; AnxA2; source: CHO cells, transfected, purified from the supernatant (HiTrap His column)
Turning to B1, the binding result is reported as “binds”.
